Laboratory results taken from patent US20190112365A1 (EISAI R AND D MANAGEMENT, published 2019).

Experiments:
[1] = biological target: T1, Human Tau 2N4R, wild type, recombinant full length (human, UniProt P10636 2-758); assay: SPR BIAcore, mAb captured by anti-mouse IgG, Tau flowed, 1:1 Langmuir
T1 construct: Full length 2N4R isoform; monomer in SPR and ELISA; heparin-induced aggregates or seeds in the functional assays; also called Tau441; Tau-441
Description: (§1) All experiments were performed using a BIAcore™ T-100 instrument (GE Healthcare). 10 μL anti-human IgG (monoclonal mouse anti-human Fc) from human antibody capture kit (GE Healthcare) was diluted to 25 μL/mL in 200 μL final immobilization buffer (10 mM sodium acetate, pH 5.0). The flow rate was set to 5 μL/min, flowpath 1. Fifty μL N-hydroxysuccinamide (NETS) and 50 μL 1-ethyl-3-(3-dimethylaminopropyl) carbidiimide (EDC) were mixed and injected for 420 sec to activate the CM5 chip surface. The diluted antibody was injected for 360 seconds followed by 1 M ethanolamine for 420 seconds. The flowpath was then switched to flowpath 2. A new EDC/NHS mixture was prepared and the procedure was repeated for flow cell 2. The surface was conditioned by 2 injections of 30 sec using flowpath 1, 2 at 30 μL/min of 3M MgCl₂. For the anti-mouse surface, 10 μL anti-mouse IgG (polyclonal rabbit anti-mouse IgG) from mouse antibody capture kit (GE Healthcare) was diluted to 30 μL/mL in 324 μL final immobilization buffer (10 mM sodium acetate, pH 5.0). The flow rate was set to 5 μL/min, flowpath 3. Fifty μL NHS and 50 μL EDC were mixed and injected for 420 sec to activate the chip surface. The diluted antibody was injected for 420 sec. 1 M ethanolamine was injected for 420 sec. Flow path was switched to flowpath 4. A new EDC/NHS mixture was prepared and the procedure was repeated for flow cell 4. The surface was conditioned by 2 injections of 30 sec using flowpath 3, 4 at 30 μL/min of 10 mM glycine, pH 1.7.
(§2) Binding of humanized and mouse antibodies were analyzed by BIAcore™ to determine their relative association rates (ka), dissociation rates (kd), and equilibrium binding constants (KD). Anti-mouse or anti-human antibodies were immobilized on a CM5 chip and sample mAbs were captured on the chip. 2N4R Tau was flowed over the chip and binding observed. The binding constants kₐ, kd, and KD were determined using a 1:1 Langmuir fitting model. Both 7G6-HCzu12-based mAbs had similar kₐ and kd values (Table 8). However, the kₐ of 7G6-HCzu11 was decreased, though the kd was unaffected. Therefore, human residues in the Vh3 framework impact binding to Tau.

[2] = biological target: T2, Peptide antigen CNIKHVPGGGSVQIVYKPVD (human, conjugated to BSA in the ELISA (to KLH via the N-terminal cysteine in the immunogen)); assay: ELISA screening of hybridoma clones
T2 construct: also called original immunization peptide; immunizing Tau peptide
T2 peptide: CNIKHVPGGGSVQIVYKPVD
Description: One month after the boost immunization, antisera were collected from the mice and antibody titers assessed by ELISA to measure immunoreactivity against the original immunizing Tau peptide and both 2N4R and 1N3R recombinant Tau proteins. Briefly, either 150 ng of Peptide antigen conjugated to BSA or 50 ng of 2N4R or 1N3R recombinant Tau protein (Enzo Life Sciences, cat. no's BML-SE321 and BML-SE323 respectively) were used to coat each well of a 96-well plate (Costar cat. no. 2797) in 10 mM phosphate buffer, pH 7.0 at 37° C. for 1 hour. Plates were blocked in a final concentration of 1% BSA diluted in PBS at room temperature for 30 minutes. […] Following additional wash steps, antibody binding was detected by addition of 3,3′,5,5′-Tetramethylbenzidine (TMB) substrate. The enzymatic reaction was stopped with an equal volume of 2M H₂SO₄ and the well optical density was determined using a platereader at wavelength 450 nm.
Once mice with a high antibody titer had been determined, cells were isolated from the medial iliac lymph nodes and fused using polyethylene glycol with mouse myeloma SP2 cells to generate hybridomas. […] To give an approximation of relative binding, culture supernatant that was positive in the peptide ELISA and either recombinant protein, 2N4R or 1N3R, or both, were then evaluated in a competitive ELISA system. […]

[3] = biological target: T1, Human Tau 2N4R, wild type, recombinant …; assay: SPR BIAcore, mAb captured by anti-mouse IgG, Tau flowed, 1:1 Langmuir; remark: listed apart in the source
Description: as §1, §2

[4] = biological target: T1, Human Tau 2N4R, wild type, recombinant …; assay: SPR BIAcore, biotinylated mAb on streptavidin (CAP) chip, single cycle, 1:1 Langmuir
Description: 400 μg of each antibody was diluted to 2 mg/mL and buffer-exchanged into 0.1 M sodium bicarbonate, pH 8.3 using 0.5 mL Zeba™ 40 kDa MWCO desalting columns (Thermo). NHS-PEG4-biotin, prepared immediately before use by dissolving in water to a 20 mM final stock concentration, was added to antibodies at a 5:1 molar ratio (biotin:MAb) and conjugated for 1 hr at room temperature. Excess biotin was removed by two sequential buffer exchanges into 1×DPBS using 0.5 mL Zeba™ 40 kDa MWCO desalting columns. For the BIAcore™ assay, antibodies were diluted to 2 μg/mL in PBS-P+/0.2% BSA (the same preparation used for the running buffer), centrifuged at 14,000 g for 5 min at room temperature, and the supernatant transferred to a new tube. Injection time was subsequently determined for each antibody to achieve a capture level of ˜225 RU.
Biotinylated humanized and mouse mAbs were captured on a streptavidin-coated chip and kₐ, kd, and KD were determined for binding to Tau (Table 11). […] The affinity of 7G6-HCzu8-LCzu6, 7G6-HCzu24-LCzu15, 7G6-HCzu24-LCzu18, 7G6-HCzu25-LCzu15, and 7G6-HCzu25-LCzu18 were all similar.

T1 sequence (P10636 other isoform, or with tags, fused parts or gaps limits assumed): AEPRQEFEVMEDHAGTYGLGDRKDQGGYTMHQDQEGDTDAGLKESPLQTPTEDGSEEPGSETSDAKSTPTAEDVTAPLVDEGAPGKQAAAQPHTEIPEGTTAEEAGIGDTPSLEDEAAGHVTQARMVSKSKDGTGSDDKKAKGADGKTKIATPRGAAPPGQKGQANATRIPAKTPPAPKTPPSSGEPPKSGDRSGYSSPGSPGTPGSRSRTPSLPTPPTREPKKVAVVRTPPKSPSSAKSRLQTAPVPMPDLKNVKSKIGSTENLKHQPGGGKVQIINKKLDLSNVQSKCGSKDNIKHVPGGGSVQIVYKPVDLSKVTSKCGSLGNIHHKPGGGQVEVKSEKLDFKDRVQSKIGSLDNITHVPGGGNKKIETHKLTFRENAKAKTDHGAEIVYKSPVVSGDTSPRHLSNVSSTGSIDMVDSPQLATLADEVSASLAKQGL

B1: murine 7G6 antibody (antibody, mouse IgG2b, V domains shown)
VH: QVQLLQPGAELVKPGASVIMSCKASGYTFTTYWITWVKQRPGQGLEWIGDIYPGSSICNYNEKFKSKATLTVDTSSSTAYMQLNSLTSEDSAVYYCAREDGYDAWFAYWGQGTLVTVSA
VL: DVLMTQTPLSLPVSLGDQASISCRSSQSILHSNGNTYLEWYLQKPGQSPKLLICKVSNRFSGVPDRFSGSGSGTDFTLKISRVEAEDLGVYYCFQGSHVPFTFGSGTKLEIK
notes: Mouse IgG2b, kappa, purified from hybridoma; also called ms7G6; mouse 7G6
How did the Kd [1] turn out when B1 was run?
Its Kd is 3.31 nM.

What about the koff [1] of the same binder?
The koff was 0.00153 s⁻¹.

And the kon [1]?
The kon was 464000 M⁻¹ s⁻¹.

Does B1 bind [2]?
Result: binds

What about the Kd [3] of the same binder?
Its Kd is 3.31 nM.

And the koff [3]?
The koff was 0.00153 s⁻¹.

What about the kon [3] of the same binder?
The kon was 464000 M⁻¹ s⁻¹.

And the Kd [4]?
Its Kd is 0.0636 nM.

And the koff [4]?
The koff was 0.000195 s⁻¹.

And the kon [4]?
Its kon is 3.11e+06 M⁻¹ s⁻¹.
